Earlier results on one substance are cited in publication PMC10766771.

The data set deals with His154. The data set can be described thus: other (pH dependence of the redox potential, electrochemistry). As to conditions: oxidized [2Fe-2S] cluster, isolated fragment.

What is called pKa is the negative logarithm of the acid dissociation constant. For “Rieske [2Fe-2S] iron-sulfur protein (cytochrome bc1-type), isolated soluble fragment (Thermus thermophilus)”, the pKa is 7.8.
